The record followed here is US20200115447A1 (Chugai, published 2020).

In experiment [1] the target is T1, soluble human IL-6 receptor (human, UniProt P08887 20-357).
T1 construct: also called hsIL-6R
T1 sequence: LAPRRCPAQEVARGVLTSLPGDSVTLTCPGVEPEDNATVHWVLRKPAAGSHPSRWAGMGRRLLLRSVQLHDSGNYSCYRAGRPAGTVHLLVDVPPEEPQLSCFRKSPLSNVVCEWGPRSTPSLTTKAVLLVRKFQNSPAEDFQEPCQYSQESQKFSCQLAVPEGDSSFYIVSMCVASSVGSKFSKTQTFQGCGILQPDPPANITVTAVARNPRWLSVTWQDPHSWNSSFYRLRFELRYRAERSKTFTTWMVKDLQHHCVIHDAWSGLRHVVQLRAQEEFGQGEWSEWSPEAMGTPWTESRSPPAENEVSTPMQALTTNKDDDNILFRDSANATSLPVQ
Nature of the experiment: SPR (Biacore T100), antibody captured via protein A/G on a CM5 chip, human IL-6 receptor injected for 3 min, 1.2 mM CaCl2, pH 7.4, 37 C. In general terms: Surface plasmon resonance follows binding to a sensor surface in real time, without labels.
Experimental: Interaction analyses were performed in a solution with a calcium ion concentration of 1.2 mM for the high calcium ion concentration condition or 3 μM for the low calcium ion concentration condition. A suitable amount of protein A/G (Invitrogen) was immobilized onto a Sensor chip CM5 (GE Healthcare) by the amine coupling method, and then antibodies of interest were captured onto the chips. Two types of buffers, 20 mM ACES, 150 mM NaCl, 0.05% (w/v) Tween 20, 1.2 mM CaCl₂ (pH 7.4) or 20 mM ACES, 150 mM NaCl, 0.05% (w/v) Tween 20, 3 μM CaCl₂ (pH 7.4), were used as the running buffer. […] All measurements were taken at 37° C.
Then, 10 mM glycine-HCl (pH 1.5) was injected at a flow rate of 30 μL/min for 30 seconds to regenerate the sensor chip.

The target of experiment [2] is T1, soluble human IL-6 receptor. The experiment is described as follows: SPR (Biacore T100), about 300 RU of antibody captured via protein A/G on a CM5 chip, human IL-6 receptor injected for 3 min, pH 7.4, 1.2 mM CaCl2, 37 C.
Experimental: The interaction for the antigen-antibody reaction was analyzed in solutions at pH 7.4 and pH 6.0, corresponding to a neutral pH and acidic pH conditions, respectively. An appropriate amount of Protein A/G (Invitrogen) was immobilized onto a Sensor chip CM5 (GE Healthcare) by an amino coupling method, and about 300 RU each of antibodies of interest were captured onto the chip. The two types of running buffers used were: 20 mM ACES/150 mM NaCl/0.05% (w/v) Tween20/1.2 mM CaCl₂ (pH 7.4); and 20 mM ACES/150 mM NaCl/0.05% (w/v) Tween20/1.2 mM CaCl₂ (pH 6.0). […] All measurements were carried out at 37° C.
Then, 10 mM glycine-HCl (pH 1.5) was injected at a flow rate of 30 μl/min for 30 seconds to regenerate the sensor chip.
Experiment [3] concerns the target T2, mFcγRIII extracellular domain with C-terminal His-tag (mouse, UniProt P08508 31-215).
T2 construct: extracellular domain; also called mouse FcγRIII
T2 sequence (looked up): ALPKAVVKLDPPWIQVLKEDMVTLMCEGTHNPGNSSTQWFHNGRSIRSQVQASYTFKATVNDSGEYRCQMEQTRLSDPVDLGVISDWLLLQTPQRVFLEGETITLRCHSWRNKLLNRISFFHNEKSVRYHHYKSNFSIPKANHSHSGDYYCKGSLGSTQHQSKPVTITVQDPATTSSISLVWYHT
Nature of the experiment: Biacore SPR, antibody captured on Protein L, FcγR extracellular domain as analyte, 25 C, 1:1 Langmuir fit.
Experimental: (§1) Analysis of interaction between each of the altered antibodies and the extracellular domain of the Fcγ receptor prepared as mentioned above was carried out using Biacore T100 (GE Healthcare), Biacore T200 (GE Healthcare), Biacore A100, and Biacore 4000. HBS-EP+(GE Healthcare) was used for the running buffer, and the interactions were measured with a measurement temperature at 25° C. Chips produced by immobilizing Protein L (ACTIGEN or BioVision) by the amine coupling method to a Series S sensor Chip CM5 (GE Healthcare) or Series S sensor Chip CM4 (GE Healthcare) were used.
(§2) The KD values of each of the altered antibodies for the extracellular domain of the Fcγ receptor were calculated according to the following kinetic analysis method.

Experiment [4] addresses T3, mFcγRII extracellular domain with C-terminal His-tag (mouse, UniProt P08101 30-210).
T3 construct: extracellular domain; also called mouse FcγRII
T3 sequence (looked up): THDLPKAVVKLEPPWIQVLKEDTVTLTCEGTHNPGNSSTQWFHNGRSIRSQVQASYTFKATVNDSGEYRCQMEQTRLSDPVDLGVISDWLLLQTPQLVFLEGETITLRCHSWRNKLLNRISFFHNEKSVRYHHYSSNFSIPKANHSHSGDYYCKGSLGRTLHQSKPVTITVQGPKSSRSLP
The description is as above.
Experimental: as §1, §2

Experiment [5] addresses T4, mFcγRI extracellular domain with C-terminal His-tag (mouse, UniProt P26151 25-297).
T4 construct: extracellular domain; also called mouse FcγRI
T4 sequence (looked up): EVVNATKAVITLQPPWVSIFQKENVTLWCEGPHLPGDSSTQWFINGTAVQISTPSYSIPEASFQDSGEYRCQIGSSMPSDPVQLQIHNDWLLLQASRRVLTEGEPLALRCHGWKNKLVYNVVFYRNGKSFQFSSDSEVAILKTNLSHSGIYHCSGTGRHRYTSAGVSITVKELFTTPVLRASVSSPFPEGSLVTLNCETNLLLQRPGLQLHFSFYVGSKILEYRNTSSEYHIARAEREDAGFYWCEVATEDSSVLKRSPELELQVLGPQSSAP
Nature of the experiment: Biacore SPR, antibody captured on Protein L, FcγR extracellular domain as analyte, 25 C.
Experimental: as §1
After capturing of each of the altered antibodies onto these sensor chips, the extracellular domain of the Fcγ receptor diluted with the running buffer was allowed to act on the chips to measure the binding level of each of the domains to each of the antibodies, and the binding levels were compared. However, since the amount of the bound extracellular domain of the Fcγ receptor depends on the amount of the antibodies captured on the sensorchip, the amount of the bound extracellular domain of the Fcγ receptor was divided by the respective amount of captured antibody to obtain corrected values, and these values were compared. Furthermore, by reaction with 10 mM glycine-HCl having pH of 1.5, antibodies captured onto the sensor chips were washed, and the regenerated sensor chips were used repeatedly.

Experiment [6] has as its target T4, mFcγRI extracellular domain with …. The experiment is described as follows: Biacore SPR, antibody captured on Protein L, FcγR extracellular domain as analyte, 25 C, 1:1 Langmuir fit.
Experimental: as §1, §2
Experiment [7] addresses T5, mFcγRIV extracellular domain with C-terminal His-tag (mouse).
T5 construct: extracellular domain; also called mouse FcγRIV
T5 sequence (A0A0B4J1G0 21-203, looked up): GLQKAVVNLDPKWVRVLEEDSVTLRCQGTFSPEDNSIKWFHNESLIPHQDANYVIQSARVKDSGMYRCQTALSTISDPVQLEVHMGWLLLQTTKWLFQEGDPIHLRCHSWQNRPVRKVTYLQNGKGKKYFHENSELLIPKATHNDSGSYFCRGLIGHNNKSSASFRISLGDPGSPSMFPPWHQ
The experiment is described as above.
Experimental: as §1, §2

Another experiment concerns the target T6, mouse FcRn (mouse, UniProt Q61559 22-297; P01887 21-119, limits assumed).
T6 sequence (looked up) 1: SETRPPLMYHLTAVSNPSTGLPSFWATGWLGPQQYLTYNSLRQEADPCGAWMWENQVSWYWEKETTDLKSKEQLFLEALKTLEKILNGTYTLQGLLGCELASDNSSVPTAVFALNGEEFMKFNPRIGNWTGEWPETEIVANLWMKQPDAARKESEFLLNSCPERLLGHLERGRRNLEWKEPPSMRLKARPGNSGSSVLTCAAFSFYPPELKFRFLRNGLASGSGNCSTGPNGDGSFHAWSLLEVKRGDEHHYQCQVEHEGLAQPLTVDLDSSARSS
T6 sequence (looked up) 2: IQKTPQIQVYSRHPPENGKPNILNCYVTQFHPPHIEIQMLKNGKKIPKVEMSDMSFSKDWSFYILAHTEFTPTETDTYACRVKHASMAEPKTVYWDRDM
Nature of the experiment: Biacore SPR, mouse FcRn, pH 7.0.

The next experiment addresses T7, human FcRn (human).
T7 construct: also called soluble human FcRn complexed with β2-microglobulin
Nature of the experiment: Biacore SPR, pH7.0, against VH3/L(WT)-IgG1.

Numbering of substitutions follows the chain as printed.

T7 sequence (chain, as listed by the source limits assumed, chain 1 of 2): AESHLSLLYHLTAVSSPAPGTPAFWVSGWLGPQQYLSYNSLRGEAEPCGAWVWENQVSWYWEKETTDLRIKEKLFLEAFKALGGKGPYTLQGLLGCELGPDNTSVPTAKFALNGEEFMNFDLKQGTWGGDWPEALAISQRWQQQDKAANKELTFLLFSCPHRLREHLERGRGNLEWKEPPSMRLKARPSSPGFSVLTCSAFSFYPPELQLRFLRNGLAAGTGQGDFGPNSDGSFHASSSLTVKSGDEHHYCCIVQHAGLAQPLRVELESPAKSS
T7 sequence (P61769 21-119 limits assumed, chain 2 of 2): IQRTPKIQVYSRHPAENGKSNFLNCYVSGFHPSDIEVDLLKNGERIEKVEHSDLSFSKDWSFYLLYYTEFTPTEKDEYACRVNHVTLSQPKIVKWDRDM
Experimental for human FcRn: Kinetic analyses between human FcRn and the antibody were carried out using Biacore T100 (GE Healthcare). A suitable amount of protein L (ACTIGEN) was immobilized onto a Sensor chip CM4 (GE healthcare) by the amine coupling method, and antibodies of interest were captured onto it. Next, diluted solutions of FcRn and the running buffer which is the blank were injected, and human FcRn was made to interact with the antibodies captured on the sensor chip. The running buffer used was 50 mmol/L sodium phosphate, 150 mmol/L NaCl, 0.05% (w/v) Tween 20, pH7.0, and the buffer was used for the FcRn dilutions. The sensor chip was regenerated using 10 mmol/L Glycine-HCl, pH1.5. All measurements were carried out at 25° C. Based on the association rate constant ka (1/Ms) and dissociation rate constant kd (1/s), which are kinetic parameters, calculated from the sensorgram obtained by the measurement, the KD (M) (affinity) of each antibody toward human FcRn was calculated. Each parameter was calculated using the Biacore T100 Evaluation Software (GE Healthcare).

B1: Tocilizumab (antibody, human IgG1, kappa, V domains shown)
VH: QVQLQESGPGLVRPSQTLSLTCTVSGYSITSDHAWSWVRQPPGRGLEWIGYISYSGITTYNPSLKSRVTMLRDTSKNQFSLRLSSVTAADTAVYYCARSLARTTAMDYWGQGSLVTVSS
VL: DIQMTQSPSSLSASVGDRVTITCRASQDISSYLNWYQQKPGKAPKLLIYYTSRLHSGVPSRFSGSGSGTDFTFTISSLQPEDIATYYCQQGNTLPYTFGQGTKVEIKR
notes: also called anti-IL-6R antibody (tocilizumab); control antibody
With B1, the binding result in [1] was “binds”.

B2: 6RpH#02 (antibody, human IgG1, kappa, V domains shown)
VH: QVQLVQSGAEVKKPGSSVKVSCKASGGTFSSYAISWVRQAPGQGLEWMGGIIPIFGTANYAQKFQGRVTITADESTSTAYMELSSLRSEDTAVYYCMINGVWEGGMDVWGQGTTVTVSS
VL: DIQMTQSPSSLSASVGDRVTITCRASQSIHSHLNWYQQKPGKAPKLLIYHASKLQSGVPSRFSGSGSGTDFTLTISSLQPEDFATYYCQQHGNSPLTFGQGTKVEIKR
On to B2, for which, in experiment [2], the binding result was “binds”.

B3: 6RC1IgG_010 (antibody, V domains shown)
VH: QVQLVQSGAEVKKPGSSVKVSCKASGGTFSSYAISWVRQAPGQGLEWMGGIIPIFGTANYAQKFQGRVTITADESTSTAYMELSSLRSEDTAVYYCARAAFLEWPIWGSEYFQHWGQGTLVTVSS
VL: B2 VL with H30E, S31D, H32D, N34A, K53S, H91R, G92D, N93S, S94Y
Regarding B3, the binding result in experiment [1] is reported as “binds”.

B4: 6RC1IgG_012 (antibody, V domains shown)
VH: QVQLVQSGAEVKKPGASVKVSCKASGYTFTSYGISWVRQAPGQGLEWMGWISAYNGNTNYAQKLQGRVTMTTDTSTSTAYMELRSLRSDDTAVYYCARATYYYDSSAPAFDIWGQGTMVTVSS
VL: B2 VL with H30E, S31D, H32D, N34A, H50E, K53T, G92D, N93D
As for B4, the binding result in [1] is on record as “binds”.

B5: 6RpH#01 (antibody, human IgG1, kappa, V domains shown)
VH: EVQLVQSGAEVKKPGSSVKVSCKASGGTFSSYAISWVRQAPGQGLEWMGGIIPIFGTANYAQKFQGRVTITADESTSTAYMELSSLRSEDTAVYYCARASIYCSSTSCYEPPYYYYMDVWGKGTMVTVSS
VL: B2 VL with H30S, N34A, H50A, K53H, H91S, G92H, S94Y
As to B5, the binding result in experiment [2] was “binds”.

B6: Fv4-mIgG1 (antibody)
heavy: QVQLQESGPGLVKPSETLSLTCAVSGHSISHDHAWSWVRQPPGEGLEWIGFISYSGITNYNPSLQGRVTISRDNSKNTLYLQMNSLRAEDTAVYYCARSLARTTAMDYWGEGTLVTVSSAKTTPPSVYPLAPGSAAQTNSMVTLGCLVKGYFPEPVTVTWNSGSLSSGVHTFPAVLQSDLYTLSSSVTVPSSTWPSETVTCNVAHPASSTKVDKKIVPRDCGCKPCICTVPEVSSVFIFPPKPKDVLTITLTPKVTCVVVDISKDDPEVQFSWFVDDVEVHTAQTQPREEQFNSTFRSVSELPIMHQDWLNGKEFKCRVNSAAFPAPIEKTISKTKGRPKAPQVYTIPPPKEQMAKDKVSLTCMITDFFPEDITVEWQWNGQPAENYKNTQPIMDTDGSYFVYSKLNVQKSNWEAGNTFTCSVLHEGLHNHHTEKSLSHSPGK
light: DIQMTQSPSSLSASVGDSVTITCQASTDISSHLNWYQQKPGKAPELLIYYGSHLLSGVPSRFSGSGSGTDFTFTISSLEAEDAATYYCGQGNRLPYTFGQGTKVEIERADAAPTVSIFPPSSEQLTSGGASVVCFLNNFYPKDINVKWKIDGSERQNGVLNSWTDQDSKDSTYSMSSTLTLTKDEYERHNSYTCEATHKTSTSPIVKSFNRNEC
notes: VH3-mIgG1 with VL3-mCK; copies: 2 + 2
With B6, the equilibrium dissociation constant (Kd) in [3] is 85 nM; in experiment [4] it was 570 nM. In addition, the binding result in experiment [5] is on record as “no binding”.

B7: Fv4-mIgG2a (antibody)
heavy: QVQLQESGPGLVKPSETLSLTCAVSGHSISHDHAWSWVRQPPGEGLEWIGFISYSGITNYNPSLQGRVTISRDNSKNTLYLQMNSLRAEDTAVYYCARSLARTTAMDYWGEGTLVTVSSAKTTAPSVYPLAPVCGDTTGSSVTLGCLVKGYFPEPVTLTWNSGSLSSGVHTFPAVLQSDLYTLSSSVTVTSSTWPSQSITCNVAHPASSTKVDKKIEPRGPTIKPCPPCKCPAPNLLGGPSVFIFPPKIKDVLMISLSPIVTCVVVDVSEDDPDVQISWFVNNVEVHTAQTQTHREDYNSTLRVVSALPIQHQDWMSGKEFKCKVNNKDLPAPIERTISKPKGSVRAPQVYVLPPPEEEMTKKQVTLTCMVTDFMPEDIYVEWTNNGKTELNYKNTEPVLDSDGSYFMYSKLRVEKKNWVERNSYSCSVVHEGLHNHHTTKSFSRTPGK
light: B6 light
notes: VH3-mIgG2a with VL3-mCK; copies: 2 + 2
In the case of B7, the Kd in [3] amounted to 45 nM; in experiment [4] it was 480 nM; in experiment [6] it was 3.9 nM; in [7] it was 3.2 nM.

B8: Fv4-mFa30 (antibody, mouse IgG2a, kappa)
heavy: B7 heavy with S241D, M254Y, S258E, K328D, L330Y, H435K, N436F
light: B6 light
notes: VH3-mFa30 with VL3-mCK; copies: 2 + 2
In the case of B8, the Kd is 5.3 nM in [3]; 8.1 nM in [4]; 0.99 nM in experiment [6]; 19 nM in [7]; 3.5 nM in the experiment with mouse FcRn.

B9: Fv4-mF3 (antibody, mouse IgG1, kappa)
heavy: B6 heavy with T248Y, T252E, H429K, N430F
light: B6 light
notes: VH3-mF3 with VL3-mCK; copies: 2 + 2
Take B9: the values for the Kd (in [3]; in experiment [4]; with mouse FcRn) were 140 nM, 870 nM and 1.5 nM, respectively. The binding result in [5] is reported as “no binding”.

B10: 6RC1IgG_019 (antibody, V domains shown)
VH: EVQLVQSGAEVKKPGSSVKVSCKASGGTFSSYAISWVRQAPGQGLEWMGGIIPIFGTANYAQKFQGRVTITADESTSTAYMELSSLRSEDTAVYYCARDRGSGFNWGNYAFDIWGQGFSVTVSS
VL: DIQMTQSPSSLSASVGDRVTITCRASQSIEDDLAWYQQKPGKAPKLLIYEASNLQSGVPSRFSGSGSGTDFTLTISSLQPEDFATYYCQQYDRYPYTFGQGTKVEIKR
For the molecule B10, the binding result in [1] is on record as “binds”.

B11: IgG1-F157 (antibody)
heavy: QVQLQESGPGLVKPSETLSLTCAVSGHSISHDHAWSWVRQPPGEGLEWIGFISYSGITNYNPSLQGRVTISRDNSKNTLYLQMNSLRAEDTAVYYCARSLARTTAMDYWGEGTLVTVSSASTKGPSVFPLAPSSKSTSGGTAALGCLVKDYFPEPVTVSWNSGALTSGVHTFPAVLQSSGLYSLSSVVTVPSSSLGTQTYICNVNHKPSNTKVDKKVEPKSCDKTHTCPPCPAPELLGGPSVFLFPPKPKDTLMISRTAEVTCVVVDVSHEDPEVKFNWYVDGVEVHNAKTKPREEQYNSTYRVVSVLTPLHQDWLNGKEYKCKVSNKALPAPIEKTISKAKGQPREPQVYTLPPSRDELTKNQVSLTCLVKGFYPSDIAVEWESNGQPENNYKTTPPVLDSDGSFFLYSKLTVDKSRWQQGNVFSCSVLHEALHYHYTQKSLSLSP
light: not shown
notes: EU numbering; also called VH3/L(WT)-F157; copies: 2 + 2
Take B11: the “fold affinity relative to IgG1” value with human FcRn is around 600 fold.

The Kd is the free concentration of one partner at which half of the binding sites on the other are occupied at equilibrium, for simple one-to-one binding. Read a high Kd as lower affinity.
